One series has as its system HIV-1US/92/727. In words: Anti-HIV evaluation in PHA-stimulated human PBMCs, reverse transcriptase in supernatant. It counts as cell-based. The note with it: HIV-1US/92/727, human PBMCs, 7 days. As for the experimental part: (§1) The cultures were incubated for 7 days at 37° C./5% CO2. Efficacy of the compounds was evaluated by measuring the amount of reverse transcriptase in the culture supernatant and toxicity was evaluated using XTT to measure cell viability. AZT was evaluated in parallel as an assay control.

The nature of another series: in vitro. The note with it: human. As to the method:
as §1

The test system of the next series is HIV-1RF. Description: XTT-tetrazolium anti-HIV assay, HIV-1RF in CEM-SS cells. It counts as cell-based. The note with it: for EC50: HIV-1RF, T-tropic laboratory strain, CEM-SS cells, XTT, 6 days. As for the experimental part:
(§2) A 2,3-bis-[2-methoxy-4-nitro-5-sulfophenyl]-2H-tetrazolium-5-carboxanilide inner salt (XTT)-tetrazolium-based assay was used to determine the anti-HIV activity of CNID-1, -2 and -3 against a T-tropic laboratory strain (HIV-1RF) in T-lymphoblastic CEM-SS cells as described previously (Gulakowski et al., J. Virol. Methods, 33: 87-100 (1991)). CEM-SS cells were maintained in RPMI 1640 media without phenol red and supplemented with 10% fetal bovine serum (BioWhittaker), 2 mM L-glutamine (BioWhittaker), and 50 μg/ml gentamicin (BioWhittaker) (complete medium). Exponentially growing cells were washed and resuspended in complete medium, and a 50 μl aliquot containing 5×10^3 cells was added to individual wells of a 96-well round-bottom microtiter plate containing serial dilutions of the respective cnidarin protein in a volume of 100 μl of medium. Stock supernatants of HIV-1RF were diluted in complete medium to yield sufficient cytopathicity (80-90% cell kill in 6 days), and a 50 μl aliquot was added to appropriate wells. Plates were incubated for 6 days at 37° C. and then stained for cellular viability using XTT.
(§3) The HIV reverse transcriptase inhibitor 3′-Azido-3′-deoxythymidine (AZT) was used as a positive control. All assays were carried out in triplicate for all viruses and cells.
Background: Tetrazolium assays rely on reduction of a dye to a coloured formazan, in cell work by metabolically active cells.

The target in series [1] is T1, HIV-1IIIB gp120 (Human immunodeficiency virus type 1 group M subtype B, UniProt P04578). The note with it: ELISA, 100 ng/well gp120. As for the experimental part: High protein binding Greiner 96-well plates (VWR, Bridgeport, N.J.) were coated with 1 pmol/well of recombinant HIV-1IIIIB gp120 (Immuno Diagnostics, Woburn, Mass.) or recombinant HIV-1HXB2 gp41 (Vybion Inc., Ithaca, N.Y.) at 4° C. overnight. The wells were emptied and then blocked with 200 μl/well of 3% non-fat dry milk (Bio-Rad, Hercules, Calif.) blocking solution for 2 hrs. A control plate was incubated with blocking solution only. After washing three times with PBST, 0.5-log10 serial dilutions of rCNID-1-Trx were added to triplicate wells of gp120−, gp41− and the blocking solution control plate, and the plates were incubated for 2 hrs. The plates were washed with PBST and 100 W/well of a 1:250 dilution of polyclonal rabbit anti-CNID-1 antibody was added and allowed to incubate for 1 hr, followed by three washes with PBST. Goat anti-rabbit (H+L), peroxidase conjugated secondary antibody (Thermo Fisher Scientific Inc., Rockford, Ill.) was added to each well (100 μl/well of a 1:1000 dilution) and further incubated for 1 hr, followed by three washes with PBST. The TMB 2-component Microwell peroxidase substrate kit (KPL Inc., Gaithersburg, Md.) was used for peroxidase detection: 100 W/well, incubation for 5-10 min and the reaction was stopped by addition of 0.5M HCl (100 W/well) before reading the absorbance at 450 nm.
Briefly, 100 ng/wells of glycosylated recombinant HIV-1IIIB gp120 (Immuno Diagnostics, Woburn, Mass.) or nonglycosylated HIV-1 gp120 (MyBioSource LLC, San Diego, Calif.) was added to the wells of two 96-well plates, and incubated overnight at 4° C. The plates were washed and blocked as previously described. Serial dilutions of rCNID-1-Trx were added (100 W/well); incubation done for 2 hrs. The plates were then washed and visualized using anti-CNID-1 polyclonal antibodies as above.
On the technique in general: ELISA stands for enzyme-linked immunosorbent assay.

For series [2], the target named is T1, HIV-1IIIB gp120. As for the experimental part: Recombinant CNID-1 (in fusion with Trx and rEK cleaved forms of rCNID-1) and recombinant HIV-1IIIIB gp120 (Immuno Diagnostics, Woburn, Mass.) controls were resolved on 4-12% Bis-Tris pre-cast SDS-PAGE gels (Life Technologies, Grand Island, N.Y.) and blotted onto polyvinylidine difluoride membranes. Membranes were blocked with 3% BSA for 2 hours. For CNID-1 detection, the membrane was incubated overnight with rabbit anti-CNID-1 (1:2000 dilution). For detection of rCNID-1 binding to gp120, membranes were incubated overnight with 1 μg/ml rgp120, then washed thrice with PBST before being incubated with polyclonal rabbit anti-gp120 (1:1000 dilution) overnight. Membranes were washed three times with PBST and further incubated with goat anti-rabbit (H+L), peroxidase conjugated secondary antibody (Thermo Fisher Scientific Inc., Rockford, Ill.) at a 1:1000 dilution for 1 hr. After washing with PBST, signals were detected on Hyblot CL autoradiography film (Denville Scientific, Metuchen, N.J.) using the SignalFire ECL reagent system (Cell Signaling Technology Inc., Danvers, Mass.) according to the manufacturer's protocol.

Another series concerns CEM-SS cells. Description: Direct toxicity to uninfected CEM-SS control cells (XTT). Format: cell-based, human. As to the method:
as §2, §3

In the next series the test system is Macrophage. Description: Cell viability of monocyte/macrophage cultures (CellTiter formazan dye reduction). The note with it: macrophages. Format: cell-based, human. From the text: (§4) To test the anti-HIV activity of CNID1 against HIV primary isolates in fresh human cells, monocyte-tropic HIV-1 strain Ba-L was obtained from the NIAID AIDS Research and Reference Reagent Program (National Institutes of Health, Bethesda, Md.). The low passage HIV-1 pediatric isolate ROJO was derived as described previously (Buckheit et al., AIDS Res. Hum. Retroviruses, 10: 1497-1506 (1994)). Human peripheral blood mononuclear cells (PBMCs) and macrophages were isolated from hepatitis and HIV seronegative donors following Ficoll-Paque centrifugation as described elsewhere (Gartner & Popovic, Techniques in HIV Research, Aldovini, A. and Walker B., eds., pp. 59-63, Stockton Press, New York, 1990). Antiviral assays were carried out with 3-day-old phytohaemagglutinin/interleukin-2 stimulated PBMCs or 6-day-cultured monocyte/macrophages. […] HIV-1 replication in PBMC (ROJO) or monocyte macrophage (Ba-L) cultures were determined by measurement of reverse transcriptase activity (Buckheit et al., Antiviral Res., 21: 247-265 (1993)) in the supernatants or p24 antigen expression by ELISA (Coulter, Hialeah, Fla.), respectively. Cell viability by formazan dye reduction was determined in replicated cultures using the CellTiter reagent (Promega, Madison, Wis.). […]

A further series deals with HIV-1ROJO. Description: HIV-1 ROJO replication in human PBMC cultures, supernatant reverse transcriptase activity. The note with it: T-tropic primary isolate. Format: cell-based.
Text: as §4

The next series has as its system PBMC. In words: Cell viability of PBMC cultures (CellTiter formazan dye reduction). It counts as cell-based, human.
Text: as §4

For series [3], the system named is HIV-1IIIB. Description: Viral attachment assay, cell-associated p24 antigen in HeLa CD4 LTR β-gal cells. It counts as cell-based. As for the experimental part:
(§5) Attachment and fusion assays were performed in HeLa-CD4-LTR-β-galactosidase cell lines as described previously (Gartner & Popovic, (1990), supra) with the following modifications. Following the interaction of HIV-1IIIIIB with HeLa CD4 LTR β-gal cells, viral attachment to HeLa CD4 LTR β-gal cells was detected as cell-associated p24 antigen following a 1 hour adsorption of virus and vigorous washing for removal of unbound virus. Fusion of HIV-1IIIIB with HeLa CD4 LTR β-gal cells was detected by chemiluminescence using a single-step lysis and detection method (Tropix Gal-screen, Bedford, Mass.) and results reported as EC50 values. Chicago Sky Blue, a polysulfonic acid dye inhibitor of HIV attachment and fusion, was used as a positive control for all assays (Clanton et al., J. Acquired Immune Defic. Syndr., 5: 771-781 (1992)).

Series [4] relates to HIV-1IIIB. In words: Viral fusion assay, chemiluminescence in HeLa CD4 LTR β-gal cells. It counts as cell-based. As for the experimental part:
as §5

Series [5] has as its system HeLa CD4 LTR β-galactosidase cells. In words: Cytotoxicity in the attachment and fusion assays. It counts as cell-based. As to the method: as §3, §5
A further series has as its system human PBMCs. In words: Toxicity in PHA-stimulated human PBMCs, XTT cell viability. The note with it: human PBMCs, XTT, 7 days. As for the experimental part:
as §1

“And” between values parts separate entries of the source, which are not always exact repeats. Equal values may be shown once. Read-outs that look alike come from different tables or passages of the source.

In general, EC50 refers to the concentration giving half of the maximal effect. In the case of `Cc1cn([C@H]2C[C@H](N=[N+]=[N-])[C@@H](CO)O2)c(=O)[nH]c1=O` [AZT, 3′-Azido-3′-deoxythymidine, reference compound], the concentration giving a half-maximal response (EC50) in the series with HIV-1US/92/727 (Human immunodeficiency virus 1, PBMC, 168 h, read-out: EC50) was 1.88 nM. Moreover, the CC50 at 7 days in “in vitro” is > 1000 nM.

B1: rCNID-1-Trx: thioredoxin-hexahistidine-CNID-1 fusion protein expressed in E. coli (protein)
chain: GRATLGQLKTSTIPPVTFDVPFDGANIPQDVRFTIATVNGGKGALYNAELGESAGHTIVLESDGDHPIPGTFDPKSGRGLDYLPRGLVLFSSHNYVGNMKMYTEPDSDITADFPPGTPFGVSSAITGEGSAFQLNTGIDHTGEFEIIPPNTKRNLAGVFDNEIRSVSPTGGK
modifications: left off: large carriers; small tags and cut ends
notes: thioredoxin-hexahistidine-CNID-1 fusion protein expressed in E. coli
For B1, the “Activity after extraction and refolding from inclusion bodies” value in the series with HIV-1RF (CaCl2 presence) was “low-to-partially active”; in the series with HIV-1RF (absence of CaCl2) it was “inactive”. For the same molecule, the “Binding to gp120” value in the series with HIV-1IIIB gp120 [1] was “binds to HIV-1 glycoproteins, gp120”. Further, in the series with HIV-1IIIB gp120 [2], the “Binding to gp120 by immunoblot” value was “specific binding”.

B2: rCNID-1 truncated forms: truncated forms of rCNID-1 (~14-16 kDa) from enterokinase digestion of rCNID-1-Trx (protein)
chain: B1 chain
The molecule B2 gave an EC50 in the series on HIV-1RF of 45 to 150 nM. Besides, the “Binding to gp120 by immunoblot” value in the series with HIV-1IIIB gp120 [2] is “specific binding”.

B3: CNID-3: HIV-inhibitory protein from soft coral Synthecium sp.; 170 amino acids, 17,963 Da, SEQ ID NO: 3 (protein)
chain: GKSAYPGQITSDVPFVTFDVPFDGVNIPQDVRFTIATVNGGKLALYNAKLGDPANNTIVLESDGDHPIPGTFDDPKGRGLDYAFGGLLLFSFHNFVGHKKLYREPDSDITADFPPGLGGSSAITGEGSTVQLYTGIDFTGISEIMPVNTKRNFVVAFGNEFKSVSPTGGG
For B3, the half-maximal effective concentration (EC50) in the series on HIV-1RF was 0.114 nM; in the series on HIV-1ROJO, 1.55 nM and 1.5 nM; in the series with HIV-1IIIB [3] (read-out: Inhibition of Attachment EC50), > 55.7 nM; in the series with HIV-1IIIB [4] (read-out: Inhibition of Fusion EC50) it was 2.06 nM; with HIV-1US/92/727, 0.0160 µg/mL. The CC50 in the series with CEM-SS cells is > 199 nM; with Macrophage, 4.62 nM; with PBMC it was 155 nM; in series [5] (attachment assay, read-out: Inhibition of Attachment CC50) it was > 55.7 nM; in series [5] (fusion assay, read-out: Inhibition of Fusion CC50), > 55.7 nM. The “Inhibition of viral attachment to the cell” value in the series with HIV-1IIIB [3] is on record as “not attachment”. Moreover, the “Inhibition of viral fusion” value with HIV-1IIIB [4] is recorded as “inhibit HIV viral fusion”. In the series with human PBMCs, the TC50 was >0.5 µg/mL.

For the origin of these results see patent publication US11034736B2, “Anti-viral cnidarins” (priority 2014, dated 2021).
